In patent publication US20170189529A1 (CONTRAFECT, published 2017):
Read-outs that look alike come from different tables or passages of the source.

B1: TRL849 (antibody, V domains shown)
VH: QVQLVESGPGLVKPSQTLSLTCTVSGGSISNGGYHWSWIRQHPGKGLEWIGNIYYRGSTFYDPSLKSRVTISVDTSKSQFSLKLTSVTAADTAVYYCARMPLANYDLLTGLYIGAFDLWGQGTMVTVSS
VL: DIVLTQSPATLSVSPGERATLSCRASQSVNRNLAWFQQIPGQAPRLLIFDASTRAADIPARFSGGGSGAEFTLTVSSLQPEDFAVYYCQQYDKWPPGFGQGTKVEIKR
B2: TRL845 (antibody, V domains shown)
VH: QVQLVQSGGDLVQPGGSLRLSCAASGFTFSRYSMNWVRQAPGMGLEWVAYISDTSRTIYYADSVKGRFTISRDNAKNSLYLQMKSLRDEDTAVYYCARDPDTPFVRAFDSWGQGTLVTVSS
VL: DIVLTQSPSFLSASVGDRVTITCRASQLISSYFAWYQQKPGKPPKLLIYAASTLQSGVPSRFSGSGSGTQFSLTISSLQPEDFATYYCQQLNSYPPITFGQGTRLEIKR
B3: TRL856 (antibody, V domains shown)
VH: QVQLVESGGGLVQPGGSLRLSCAASGFTFSDYWMVWVRQAPGKGLVWVSRISSDGSTTSYADSVKGPFTISRDNAKNTLYLQMNSLRAEDTAVYYCARVATPYYYESGFDYWGQGALVTVSS
VL: DIVLTQSPSVSVAPGQTARITCGGNDIGSKSVHWYQQKPGQAPVLVVFDDRDRPSGIPERFSGSNSGNTATLTISRVEAGDEADYYCQVWDITSDLVVFGGGTKLTVVG
B4: TRL832 (antibody, V domains shown)
VH: QVQLVESGPGLMKPSETLSLTCTVSGGSVSNYYWSWIRQPPGKGLEWIGYVFYSGSSNYNPSLNNPSLKSRVTISIDTSNNQFSLKLSSVTAADTAVYYCARGRVNSGYDWGPNFDSWGQGALVTVSS
VL: DIVLTQAPSVSVSPGQTASITCSGDRLGEKFASWYQQKPGQSPVLVIYEDSKRPSGIPDRFSGSNSGNTATLTISGTQIMDEGDFFCQAWDSSTVVFGGGTKLTVLG
B5: TRL848 (antibody, V domains shown)
VH: QVQLLESGGDVVQPGTSLRLSCAASGFSLWTSGMHWVRQAPGKGLEWVAVMSYDETKKYYADSVRGRFSISRDNSRNTLYLQMNSLRVEDTAVYFCAKPRLDYLDYFHAADSWGQGTLVSVSS
VL: DIVLTQPPSVSVAPGQTATITCGGNYIGSKSVNWYQQRPGHAPVLVVYDDSDRPSGIPDRFSGSNSRSTATTATLTISRVEAGDEADYYCQVWETSEDLWVFGGGTKLTVLG
B6: TRL842 (antibody, V domains shown)
VH: QVQLLESGGDVVQPGTSLRLSCAASGFSLWTSGMHWVRQAPGKGLEWVAVMSYDETKKYYADSVRGRFSISRDNSRNTLYLQMNSLRVEDTAVYFCAKPRLDYLDYFHAADSWGQGTLVSVSS
VL: DIVLTQPPSVSVAPGQTATITCGGNYIGSKSVNWYQQRPGHAPVLVVYDDSDRPSGIPDRFSGSNSRSTATTATLTISRVEAGDEADYYCQVWETSEDLWVFGGGTKLTVLG
B7: TRL841 (antibody, V domains shown)
VH: QVQLVESGGGVVQPGRSLRLSCAASGFTFSSYGIYWVRQAPGKGLEWVAFISYDEINKFYADSVKGRFTISRDNSKNTVFLQMNSLRDEDTAVYYCAKPLRGSYRYFDLWGRGTVVTVSS
VL: DIVMTQPPATLSVSPGERATLSCGASQGLGSNLAWYQQKPGQAPRLLIYAASTRATGITARFSGSGSGTEFTLTINSLQSEDFALYYCQQYTYWPLTFGGGTKVEIKR
B8: TRL813 (antibody, V domains shown)
VH: QVQLVESGGGLVQPGGSLRLSCAASGFIFGDFAIHWVRQASGKGLEWVARIRSGLNRFETAYAASVEGRLTISRDDSKSMAYLQMNNVKAEDTAVYLCTYLVGAVGFQHWGQGTLVTVSS
VL: DIVMTQSPSTLSASVGDRVTITCRASQTIYRWLAWYQQKPGKAPKVLIYKASTLESGVPSRFSGSGSGTEFTLAISSLQPDDFATYYCQQYNSFPYRFGQGTKVEIKR
B9: TRL053 (antibody, V domains shown)
VH: QVQLVQSGAEVRKPGSSVKVSCKVSGGIIRKYAINWVRQAPGQGLEWMGGIIAIFNTANYAQKFQGRVTITADESTSTVYMELSSLRSEDTALYYCARGMNYYSDYFDYWGQGSLVTVSP
VL: EIVLTQSPGTLSLSPGERATLSCRASQSVRSNNLAWYQHKPGQAPRLLIFGASSRATGIPDRFSGSGSGTDFTLTISRLEPEDFAVYYCQQYGSSPALTFGGGTKVEIKR
B10: TRL809 (antibody, V domains shown)
VH: QVQLLESGGGVVRPGRSLRLACAGSGFTFSAYAMHWVRQAPGKGLEWVAHTSYDGRDSYYVDSVKGRFTISRDDSKNTLYLQMNSLRPEDTAVYYCAKVGPYTGYDDYNYYGMDVWGHGTTVTVSS
VL: DIVLTQSPVSLAVSLGESATVNCKSSQSVLSNSKNLNYLAWYQHKPGQPPKLLIYWASTRESGVPDRFSGSGSGTDFTLTISSLQAEDVAVYYCQQHYSIPLTFGPGTKVDIKR
B11: TRL812 (antibody, V domains shown)
VH: QVQLVQSGGGVVQPGRSLRLSCAASGFNFSSYGMHWVRQAPGKGLEWLSVIWSGGSNKYYADSVKGRFTISRDDSKNTVYLQMNSLRDEDTAVYYCARAHTALTRFRWLDPWGQGILVTVSS
VL: DIVMTQSPATLSVSPGEGATLSCRASQGIGSNLAWYQHKPGQAPRLLIYAASTRATGVPARFSGSGSGTEFTLTISSLQSEDLAVYFCQQYNTWPLTFGGGTKVEIIR
B12: TRL847 (antibody, V domains shown)
VH: QVQLVESGGGLVQPGGSLRLSCVASGFTFSRFSMNWVRQAPGMGLEWVSYISDTGRTIYYADSVKGRFTISRDNDKNTLYLQMKSLRDEDSAFYYCARDPDTPFVRAFDSWGQGVLVTVSS
VL: DIVMTQSPSFLSASVGDRVTITCRTSQVISSYLAWYQQRPGKAPKLLIYAASTLQSGVPSRFSGSGSGTRFSLTISNLQPEDFATYFCQQLTTYPPITFGQGTRLEIKR

Assays:
[1] = biological target: T1, hemagglutinin (HA) of influenza B virus B/Florida (Yamagata lineage) (influenza B virus B/Florida/06 …); test: ForteBio Octet; antigen on the sensor, varying antibody concentrations
[2] = biological target: T2, hemagglutinin (HA) of influenza B virus B/Malaysia (Victoria lineage) (influenza B virus B/Malaysia/04 …); test: as above
[3] = biological target: T1, hemagglutinin (HA) of influenza B virus …; test: recombinant HA ELISA (AttoPhos fluorescence, mean of triplicates)
[4] = biological target: T2, hemagglutinin (HA) of influenza B virus …; test: as above
[5] = biological target: recombinant HA of influenza B virus B/Mass/12 (Yamagata clade) (influenza B virus B/Mass/12 (Yamagata …)); test: as above
[6] = biological target: recombinant HA of influenza B virus B/Wisconsin/10 (Yamagata clade) (influenza B virus B/Wisconsin/10 …); test: as above
[7] = biological target: recombinant HA of influenza B virus B/Brisbane/08 (Victoria clade) (influenza B virus B/Brisbane/08 …); test: as above
[8] = biological target: T1, hemagglutinin (HA) of influenza B virus …
[9] = biological target: hemagglutinin of influenza A virus A/CA/04/09 (H1), on virus (influenza A virus H1 A/CA/04/09); test: cell-based or functional assay
[10] = biological target: hemagglutinin of influenza A virus A/mallard/MN/AI08-3881/08 (H2), on virus (influenza A virus H2 …); test: cell-based or functional assay
[11] = biological target: hemagglutinin of influenza A virus A/Mallard/MN/182753/98 (H9), on virus (influenza A virus H9 …); test: cell-based or functional assay
[12] = biological target: H2 Japan/305/1957 HA monomer (influenza A virus H2 Japan/305/1957, UniProt P03451 16-525); test: kinetic binding to HA monomer (instrument not stated)

Binder | Kd [1] [nM] | Kd [2] [nM] | fold reactivity over background [3] [fold over background] | fold reactivity over background [4] [fold over background] | fold reactivity over background [5] [fold over background] | fold reactivity over background [6] [fold over background] | fold reactivity over background [7] [fold over background] | Kd [8] [nM] | IC50 (ug/ml), MDCK monolayer microneutralization assay [9] [µg/mL] | IC50 (ug/ml), MDCK monolayer microneutralization assay [10] [µg/mL] | IC50 (ug/ml), MDCK monolayer microneutralization assay [11] [µg/mL] | Kd [12] [nM] | koff [12] [s⁻¹] | kon [12] [M⁻¹ s⁻¹]
B1 | 0.2 | < 1 | 25.6 | 25.6 | 25.6 | 25.6 | 25.6 |  |  |  |  |  |  | 
B2 | 5.2 | < 1 | 25.6 | 25.6 | 25.6 | 25.6 | 25.6 | 0.19 |  |  |  |  |  | 
B3 |  |  | 25.6 | 25.6 | 25.6 | 25.6 | 24.1 |  |  |  |  |  |  | 
B4 | 1.7 | 0.2 | 25.6 | 25.6 | 25.6 | 25.6 | 25.6 |  |  |  |  |  |  | 
B5 | 3.9 | < 1 | 25.6 | 25.6 | 25.6 | 25.6 | 25.6 | 1.7 |  |  |  |  |  | 
B6 | 2.5 | < 1 | 25.6 | 25.6 | 25.6 | 25.6 | 25.6 |  |  |  |  |  |  | 
B7 |  |  | 25.6 | 25.6 | 25.6 | 25.6 | 25.6 |  |  |  |  |  |  | 
B8 |  |  | 25.6 | 25.6 | 25.6 | 25.6 | 25.6 |  |  |  |  |  |  | 
B9 |  |  | 1.1 | 1.6 | 1 | 2.8 | 1 |  | 0.9 | 0.3 | 0.1 | 12.3 | 6.8e-05 | 5500
B10 | 0.18 | 0.2 | 25.6 | 25.6 | 25.6 | 25.6 | 25.6 |  |  |  |  |  |  | 
B11 |  |  | 25.6 | 25.6 | 25.6 | 25.6 | 25.6 |  |  |  |  |  |  | 
B12 | 0.7 | < 1 | 25.6 | 25.6 | 25.6 | 25.6 | 25.6 |  |  |  |  |  |  | 
